The values that follow come from the supplement of paper PMC12764529.

The nature of data set [1]: folding stability dG unfold from trypsin proteolysis; higher = more stable. In short, it runs like this:
(§1)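 Unfolding free energy was derived, per protease or combined, against a sequence-predicted unfolded-state K50 and a shared folded-state K50, starting from K50 inferred by Bayesian fitting of sequencing counts. Digestion with trypsin and chymotrypsin was carried out on designed mini-proteins under 80 residues without cysteine in a PA-tagged cDNA display construct. Only designs with AlphaFold2 dimer inter-PAE above 15 were kept.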

Data set [2] in a line: folding stability dG unfold from chymotrypsin proteolysis; higher = more stable. In short, it runs like this: as §1
A short description of data set [3]: folding stability dG unfold (combined trypsin and chymotrypsin); higher = more stable. In short, it runs like this: as §1

± gives the half width of the 95% confidence interval. A value given as a limit tells only on which side of the number the result lay.

In the case of “SSKTVTVTTEEEEKEAREKIKELVKPGKSVDVEITMTGPDGTRTRRTYKITTNPDGTITIEETETPLPPPSA [r9_1023_JUSTAS]”, the “folding stability dG unfold” value came out at 1.5 ± 0.034 kcal/mol in data set [1], 2.43 ± 0.057 kcal/mol in data set [2] and 2.17 ± 0.21 kcal/mol in data set [3].

Turning to “SSLEIPPEVLAEIKKAALEGDDEKVKELLKELGFTKVEIKYEKLDGKVKLTIKVEHPEGPATITFSDELLSA [r9_783_JUSTAS]”, the entries for the “folding stability dG unfold” value in data set [1], in data set [2] and in data set [3] were 3.36 ± 0.18 kcal/mol, 4.15 ± 0.15 kcal/mol and 4.23 ± 0.28 kcal/mol, respectively.

In the case of “SSPEEDLEEIEITVTNPNDPRPSFVKVTRSPEGYEATFTLPDGKTVKIPPELGLEEIKKLPSSFTITILPSA [r9_781_JUSTAS]”, the “folding stability dG unfold” value is 0.0376 ± 0.059 kcal/mol in data set [1], 0.83 ± 0.087 kcal/mol in data set [2] and 0.561 ± 0.064 kcal/mol in data set [3].

On to “SSPMTVEELLERHPNLLVVRLPDGTVYLFDPEKETLYTVTPGTGEVTVTPLSLEELLALLPAAGHEVLPLSA [r9_721_JUSTAS]”, for which the “folding stability dG unfold” value was found to be 1.74 ± 0.1 kcal/mol in data set [1], 2.14 ± 0.092 kcal/mol in data set [2] and 1.99 ± 0.11 kcal/mol in data set [3].

Turning to “SSSAEIRAYRFPDFWLVEIDLRDGDKLVGTAVFPNDGSVSLEEVAEAFRAAHPDFDVEISAIEPVPPPPPSA [r9_364_TrMRF]”, the results for the “folding stability dG unfold” value in data set [1], in data set [2] and in data set [3] were 1.71 ± 0.064 kcal/mol, 2.08 ± 0.063 kcal/mol and 2.01 ± 0.12 kcal/mol, respectively.

In the case of “SSSGTDPLTVRVTVTLTDPSTGKETLLEYEVEVPPGTPVEVELPDVPPSASVTVEVYDPGGVRIGTRTLPSA [r9_478_JUSTAS]”, the “folding stability dG unfold” value worked out at 1.81 ± 0.14 kcal/mol in data set [1], 1.78 ± 0.11 kcal/mol in data set [2] and 1.95 ± 0.4 kcal/mol in data set [3].

With “SSSPSGLSVTSSTVTKVETDPGPGNVTTVTVTTLNNSVLIIPLPGKPLVIPTNTTVETTYTVPPDDPSPASA [r9_531_JUSTAS]”, the “folding stability dG unfold” value is 1.31 ± 0.073 kcal/mol in data set [1], 0.87 ± 0.11 kcal/mol in data set [2] and 1.15 ± 0.074 kcal/mol in data set [3].

As to “SSSSMKTVFDPNRPYPRTVLVTFLPDGTVVITAPGKKLSTVKVEIEPPPPLELRPRVSPNGERSPGYLRLGS [r1_496_JUSTAS]”, the figures for the “folding stability dG unfold” value in data set [1], in data set [2] and in data set [3] were 1.1 ± 0.18 kcal/mol, 1.76 ± 0.14 kcal/mol and 1.47 ± 0.16 kcal/mol, respectively.

As to “SSSSTLVSSYTLTLKDEKGNEITLKVDVYKFPSGSYRVEITRPDGTVTEYEFPASEPPTEEKIKELALKKSA [r9_616_JUSTAS]”, the “folding stability dG unfold” value was 4.47 ± 0.46 kcal/mol in data set [1], 6.01 ± 0.13 kcal/mol in data set [2] and > 6 kcal/mol in data set [3].

For the sequence “SSWEKLSTLTLPSTGLTVTFYYDPSTNSTAVKVTDGAGPELSEKVLSDDETFTLPDGVSIKLPKGAEPASSA [r9_340_JUSTAS]”, the entries for the “folding stability dG unfold” value in data set [1], in data set [2] and in data set [3] were 0.334 ± 0.021 kcal/mol, 1.45 ± 0.077 kcal/mol and 1.02 ± 0.081 kcal/mol, respectively.

“SSYTVDVTFTDPSPPKPTHRTLSSIEDAIAEAKAELPPGSVATITVTYPDGSTETITIVGDGVVETKKTASA [r9_482_JUSTAS]”: the “folding stability dG unfold” value was -0.116 ± 0.056 kcal/mol in data set [1], 0.917 ± 0.039 kcal/mol in data set [2] and 0.561 ± 0.081 kcal/mol in data set [3].

For the sequence “STIRITLPKEELSPELLEALAKAPGLSEEELRDRLTVEEVDGEVVITLSPEVLEELRKRNPELLEALEKASA [r9_160_TrROS_Hall]”, the “folding stability dG unfold” value in data set [1] stood at 3.32 ± 0.093 kcal/mol; in data set [2] it was 1.91 ± 0.054 kcal/mol; in data set [3], 2.59 ± 0.11 kcal/mol.

For the sequence “STITIEVETPEELEKALVEAEKLVEKGKDVKIEIFVRNENGETLKLTFDIKQLPDGIPVLEIEVEPVPPPSA [r9_1023_TrMRF]”, the “folding stability dG unfold” value was determined as 1.89 ± 0.1 kcal/mol in data set [1], 3.1 ± 0.041 kcal/mol in data set [2] and 2.74 ± 0.13 kcal/mol in data set [3].

As for “STKLLPFEEALKEAEKAIKEGKKKVNITIYTPDGKTFNLTDVEKVKEFIEKEFPGISLSELTVTVSITPPES [r1_325_JUSTAS]”, the results for the “folding stability dG unfold” value in data set [1], in data set [2] and in data set [3] were 2.86 ± 0.068 kcal/mol, 3.53 ± 0.065 kcal/mol and 3.3 ± 0.067 kcal/mol, respectively.

As for “STLEELLEAIEKLPPGAVVRITITLENGEKIELPIEMTVEELKEQLEALAAEHPGKKIEIKIEVIPKEELSA [r9_37_TrROS_Hall]”, the “folding stability dG unfold” value in data set [1] is 3.66 ± 0.38 kcal/mol; in data set [2], 2.78 ± 0.28 kcal/mol; in data set [3], 3.43 ± 0.56 kcal/mol.

In the case of “STLEQILDAIESMPPGWVFRIKIHHPNGEPHEHRFNMTYDDIKAQLENMIDHHPGQPIKIKIEFMPPEDFSA [r9_37_TrROS]”, the results for the “folding stability dG unfold” value in data set [1], in data set [2] and in data set [3] were 2.97 ± 0.11 kcal/mol, 3.72 ± 0.077 kcal/mol and 3.38 ± 0.064 kcal/mol, respectively.

“STLLEEAKAQAEAYLKAAGLELAPGDVVTLTVPYPGPLTLEITVHPGEKKLEITATDASTPTTHTLTFDESA [r9_426_JUSTAS]”: the “folding stability dG unfold” value in data set [1] was found to be 0.831 ± 0.039 kcal/mol; in data set [2] it was 1.16 ± 0.074 kcal/mol; in data set [3], 1.03 ± 0.079 kcal/mol.

Turning to “STLPPGATRTFEFTDPATGKKITVTLTRLPDGTVRVTLTTTDPATGKTTTETFTLPGETLEALLALVEESSA [r9_618_JUSTAS]”, the results for the “folding stability dG unfold” value in data set [1], in data set [2] and in data set [3] were 4.28 ± 0.22 kcal/mol, 4.86 ± 0.12 kcal/mol and 4.68 ± 0.16 kcal/mol, respectively.

Turning to “STTEVEVTPLPGNSTLVTTTTTTPEFDPANGTIRYTSETTTTTITYTPGTTEPTTTTTTTTTTTTIPATTSA [r9_140_JUSTAS]”, the “folding stability dG unfold” value in data set [1] came out at 0.639 ± 0.062 kcal/mol; in data set [2], 0.813 ± 0.12 kcal/mol; in data set [3], 0.814 ± 0.14 kcal/mol.

For “SVEKAREALEEAGFEVTRIEVREDGTVRVTVRRDGKLVEIELTVEPPPPVEVVEEEPEVRVERRYSAEDLSA [r9_2_TrROS_Hall]”, the results for the “folding stability dG unfold” value in data set [1], in data set [2] and in data set [3] were 0.499 ± 0.15 kcal/mol, -0.34 ± 0.42 kcal/mol and 0.212 ± 0.35 kcal/mol, respectively.

As for “SVEKARERLEKLGFKLVSVDPLEDGSVVLTFEFPDNKVVVLVDEDGNARIVAYNPSDGKFSEATFNLDDLSA [r9_2_TrMRF]”, the “folding stability dG unfold” value in data set [1] worked out at 2.84 ± 0.066 kcal/mol; in data set [2], 2.577 ± 0.024 kcal/mol; in data set [3], 2.7 ± 0.038 kcal/mol.

As for “SVFEMPIKLTLKRRDPDGKGRKVKVTIRIRFEMPPNLPPDDKNDPERRKMHQMMHSNMHERAESLADPLASA [r9_237_TrROS]”, the “folding stability dG unfold” value was 1.41 ± 0.095 kcal/mol in data set [1], 1.6 ± 0.36 kcal/mol in data set [2] and 1.67 ± 0.28 kcal/mol in data set [3].

Take “SVKIKINWQRDPEDGRLYLMIEYRFEDDPQQAIEEIKDILERFGFKVPEIESITVDPGNGEITIPIRIPWSA [r9_876_TrROS]”: the “folding stability dG unfold” value in data set [1] amounted to 2.64 ± 0.097 kcal/mol; in data set [2] it was 2.62 ± 0.11 kcal/mol; in data set [3], 2.66 ± 0.22 kcal/mol.

With “SVTVDEIAEWFANSFQQHGMKDVKVDVTVEPDPKNGRVRVDVQIRMTYPNPDGEKHRFEMTIPVEIPPNDSA [r9_440_TrROS]”, the “folding stability dG unfold” value in data set [1] was 1.93 ± 0.051 kcal/mol; in data set [2], 1.93 ± 0.075 kcal/mol; in data set [3], 1.99 ± 0.12 kcal/mol.

As to “SVVLDVPYENRPDLLATIRALVAEKAPPVVVFVEAPEAERARLRRELEALGFTVEPTPVPNRYRITFRPASA [r9_600_TrMRF]”, the entries for the “folding stability dG unfold” value in data set [1], in data set [2] and in data set [3] were 3.15 ± 0.085 kcal/mol, 3.07 ± 0.058 kcal/mol and 3.15 ± 0.067 kcal/mol, respectively.

Regarding “SVYIPIPMGDPEGLKEMLDFIKNILEKNQENGYENVPIPIHMPNGGPFEFPIDPNSTLEEQLDQIEKFIESA [r9_127_TrROS]”, the “folding stability dG unfold” value in data set [1] came to 1.56 ± 0.11 kcal/mol; in data set [2], 0.663 ± 0.078 kcal/mol; in data set [3], 1.15 ± 0.24 kcal/mol.

Turning to “SYIKIPFNVWMPPDNAEAMAEEFANNLAQKHGWKIKGIKPVEPVPSPDGEWYPFRVSITIRMPDPEAINASA [r9_302_TrROS]”, the “folding stability dG unfold” value worked out at 1.62 ± 0.031 kcal/mol in data set [1], 2.07 ± 0.13 kcal/mol in data set [2] and 1.82 ± 0.098 kcal/mol in data set [3].

Consider “SYKIHIMRPNGEMEEIPIKHPDGWKINIHRGPNKPFYIMVERYDPDGGPKPKPVIPIDSPEQALDKLKDASA [r9_942_TrROS]”, for which the “folding stability dG unfold” value in data set [1] is -0.123 ± 0.18 kcal/mol; in data set [2], -0.11 ± 0.3 kcal/mol; in data set [3], 0.0153 ± 0.2 kcal/mol.

For “TIVIENASVEQIKNAIKEAIKEGKEVKIIIKASPEEKEKIIEELKKLPEIKKVEKLPNGSIKITIKAKELKS [r1_324_TrROS_Hall]”, the “folding stability dG unfold” value in data set [1] turned out to be 1.76 ± 0.083 kcal/mol; in data set [2], 2.82 ± 0.69 kcal/mol; in data set [3], 2.32 ± 0.66 kcal/mol.

“VDLGIRTESVGGRRYRVLIRRPGTGEPRVLEVEGTLEEARERALREIREEYPDLPVRSINPVPVPAPPWLES [r1_80_TrMRF]”: the “folding stability dG unfold” value was -0.153 ± 0.19 kcal/mol in data set [1], -0.154 ± 0.14 kcal/mol in data set [2] and -0.139 ± 0.15 kcal/mol in data set [3].

“VDPDDPEYQRFVYFVQELAKTIVEEHQEEGPTVDELYITVDPNNVKIEPVDMPPDEWEEHQKEGRPVIPIRS [r1_134_TrROS]”: the “folding stability dG unfold” value in data set [1] was 0.179 ± 0.14 kcal/mol; in data set [2], 0.187 ± 0.33 kcal/mol; in data set [3], -0.0608 ± 0.28 kcal/mol.

Take “WLKFPFPIYNPGFGRPAKFEIELWPDGQLQVTWNGQPILSIPIRIVPPPEVEVDPEYDPNGKEKPKWKYPGS [r1_496_TrROS]”: the “folding stability dG unfold” value was 0.438 ± 0.22 kcal/mol in data set [1], 1.81 ± 0.16 kcal/mol in data set [2] and 1.39 ± 0.35 kcal/mol in data set [3].
